Measurements as given in article PMC3320615, “β-Microseminoprotein Endows Post Coital Seminal Plasma with Potent Candidacidal Activity by a Calcium- and pH-Dependent Mechanism” (PLoS Pathogens, 2012).

Tests used:
[1] = Liposome leakage (carboxyfluorescein release); type: biochemical; details: % ± SD of leakage with Triton X-100, CF fluorescence 520 nm, 37°C, at least triplicate
Description: Subsequently, buffer (10 mM Tris, pH 7.4) was added together with 0.1 M carboxyfluorescein (CF) (Sigma, St Louis, MO). After hydration, the lipid mixture was subjected to eight freeze-thaw cycles consisting of freezing in liquid nitrogen and heating to 60°C. Unilamellar liposomes of about Ø140 nm were generated by multiple extrusions through polycarbonate filters (pore size 100 nm) mounted in a […] (Avestin, Ottawa, Canada) at 22°C. Untrapped CF was then removed by two gel filtrations (Sephadex G-50) at 22°C, with Tris buffer as eluent. CF release was determined by monitoring the emitted fluorescence at 520 nm from liposome dispersions (10 mM lipid in 10 mM Tris). An absolute leakage scale was obtained by disrupting the liposomes at the end of the experiment through addition of 0.8 mM Triton X100 (Sigma, St Louis, MO), causing 100% release and dequenching of CF. Although calcein is frequently used for pH-dependent leakage studies, the high charge of this dye has been noted to influence its leakage behavior in the presence of highly cationic peptides. Instead, therefore, CF was used as a leakage marker at both pH 6.0 and 7.4, avoiding pH-dependent fluorescence effects through neutralization prior to probing the limiting leakage in case of pH 6.0 leakage. Throughout, a SPEX-fluorolog 1650 0.22-m double spectrometer (SPEX Industries, Edison, NJ) was used for the liposome leakage assay. Measurements were performed in at least triplicate at 37°C.

[2] = tested on: Candida albicans ATCC 90028; assay: CFU assay with C. albicans; type: cell-based; details: for Estimate (difference between means of log values): control - treatment, pH 4
In short: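 About 4×10^3–10^4 CFU of C. albicans (ATCC 90028 unless stated) exposed to test substance in 10 mM Tris, 5 mM glucose at pH 7.4 or pH 4 for 4 h at 37 °C. Survivors counted as colonies after 2 days at 30 °C; log counts compared with control.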

B1: β-microseminoprotein (natural protein, human, UniProt P08118 21-114, looked up)
chain: SCYFIPNEGVPGDSTRKCMDLKGNKHPINSEWQTDNCETCTCYETEISCCTLVSTPVGYDKDNCQRIFKKEDCKYIVVEKKDPKKTCSVSEWII
notes: human β-microseminoprotein (MSP, PSP94), native protein purified from seminal plasma; also called MSP; PSP94
In the case of B1, the Liposome leakage ([1]; pH 6.0, +EDTA, DOPC/ergosterol liposomes) is reported as 53±5%, the Liposome leakage ([1]; pH 6.0, without EDTA, DOPC/ergosterol liposomes) is reported as 36±8% and the Liposome leakage ([1]; pH 7.4, +EDTA) is reported as 20±6%. The Liposome leakage ([1]; pH 7.4, without EDTA) was 20±5%, the “Estimate (difference between means of log values)” value ([2]; 25 µM MSP + 25 µM EDTA + 0.5 mM calcium, experiment 1) was -0.9947 and the “Estimate (difference between means of log values)” value ([2]; 25 µM MSP + 25 µM EDTA + 0.5 mM calcium, experiment 2) was -0.9876. The “Estimate (difference between means of log values)” value ([2]; 25 µM MSP + 25 µM EDTA + 0.5 mM calcium, experiment 3) was -1.0805, the “Estimate (difference between means of log values)” value ([2]; 25 µM MSP + 25 µM EDTA + 0.5 mM magnesium, experiment 1) was 1.9399 and the “Estimate (difference between means of log values)” value ([2]; 25 µM MSP + 25 µM EDTA + 0.5 mM magnesium, experiment 2) was 2.1624. The “Estimate (difference between means of log values)” value ([2]; 25 µM MSP + 25 µM EDTA + 0.5 mM magnesium, experiment 3) was 1.6349, the “Estimate (difference between means of log values)” value ([2]; 25 µM MSP + 25 µM EDTA, experiment 1) was 4.1638 and the “Estimate (difference between means of log values)” value ([2]; 25 µM MSP + 25 µM EDTA, experiment 2) was 4.7089. The “Estimate (difference between means of log values)” value ([2]; 25 µM MSP + 25 µM EDTA, experiment 3) was 4.1911, the “Estimate (difference between means of log values)” value ([2]; 25 µM, experiment 1) was -0.06377 and the “Estimate (difference between means of log values)” value ([2]; 25 µM, experiment 2) was -0.4481. For the same molecule, the “Estimate (difference between means of log values)” value ([2]; 25 µM, experiment 3) was -0.4892, the “Fungicidal activity in CFU assay” value ([2]; native MSP 10 µM + 20 µM EDTA or recombinant dialyzed MSP 10 µM + 10 µM EDTA) was “prominent fungicidal activity” and the “Candidacidal activity in CFU assay” value ([2]; neutral and acidic pH, without EDTA) was “no candidacidal activity”.
